Test results from the supplement of paper PMC10567573.

B1: ADD1 (parent)
chain: LRHSFQKQQREKTRWLNSGRGDEA

Variants of: B1
Assay: protein stability index of a GFP-peptide fusion (GPS, HEK-293T) (PSI 1-6); higher = more stable
Details: c terminus: a fixed tail appended
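Also: lentivirally expressed fusions sorted by FACS into six bins by GFP to DsRed ratio, PSI derived from sequencing read proportions per bin multiplied by bin number.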

Row | Variant | protein stability index
1 | LRHSTQKQQREKTRWLNSGRGDEA | 4.11
2 | LRHSVQKQQREKTRWLNSGRGDEA | 4.17
3 | LRHSWQKQQREKTRWLNSGRGDEA | 3.44
4 | LRHSYQKQQREKTRWLNSGRGDEA | 3.71
5 | LRHSFAKQQREKTRWLNSGRGDEA | 3.78
6 | LRHSFCKQQREKTRWLNSGRGDEA | 2.27
7 | LRHSFDKQQREKTRWLNSGRGDEA | 4.37
8 | LRHSFEKQQREKTRWLNSGRGDEA | 4.14
9 | LRHSFFKQQREKTRWLNSGRGDEA | 3.21
10 | LRHSFGKQQREKTRWLNSGRGDEA | 3.11
11 | LRHSFHKQQREKTRWLNSGRGDEA | 3.69
12 | LRHSFIKQQREKTRWLNSGRGDEA | 3.25
13 | LRHSFKKQQREKTRWLNSGRGDEA | 3.99
14 | LRHSFLKQQREKTRWLNSGRGDEA | 3.54
15 | LRHSFMKQQREKTRWLNSGRGDEA | 3.49
16 | LRHSFNKQQREKTRWLNSGRGDEA | 3.87
17 | LRHSFPKQQREKTRWLNSGRGDEA | 4.11
18 | LRHSFRKQQREKTRWLNSGRGDEA | 3.7
19 | LRHSFSKQQREKTRWLNSGRGDEA | 3.18
20 | LRHSFTKQQREKTRWLNSGRGDEA | 3.7
21 | LRHSFVKQQREKTRWLNSGRGDEA | 3.56
22 | LRHSFWKQQREKTRWLNSGRGDEA | 2.53
23 | LRHSFYKQQREKTRWLNSGRGDEA | 2.85
24 | LRHSFQAQQREKTRWLNSGRGDEA | 3.95

Row | Variant | protein stability index
25 | LRHSFQCQQREKTRWLNSGRGDEA | 1.8
26 | LRHSFQDQQREKTRWLNSGRGDEA | 3.87
27 | LRHSFQEQQREKTRWLNSGRGDEA | 4.33
28 | LRHSFQFQQREKTRWLNSGRGDEA | 3.63
29 | LRHSFQGQQREKTRWLNSGRGDEA | 4.57
30 | LRHSFQHQQREKTRWLNSGRGDEA | 3.53
31 | LRHSFQIQQREKTRWLNSGRGDEA | 3.1
32 | LRHSFQLQQREKTRWLNSGRGDEA | 3.89
33 | LRHSFQMQQREKTRWLNSGRGDEA | 3.22
34 | LRHSFQNQQREKTRWLNSGRGDEA | 4.21
35 | LRHSFQPQQREKTRWLNSGRGDEA | 3.86
36 | LRHSFQQQQREKTRWLNSGRGDEA | 4.27
37 | LRHSFQRQQREKTRWLNSGRGDEA | 3.01
38 | LRHSFQSQQREKTRWLNSGRGDEA | 4.24
39 | LRHSFQTQQREKTRWLNSGRGDEA | 3.67
40 | LRHSFQVQQREKTRWLNSGRGDEA | 3.38
41 | LRHSFQWQQREKTRWLNSGRGDEA | 3.08
42 | LRHSFQYQQREKTRWLNSGRGDEA | 3.51
43 | LRHSFQKAQREKTRWLNSGRGDEA | 4
44 | LRHSFQKCQREKTRWLNSGRGDEA | 2.62
45 | LRHSFQKDQREKTRWLNSGRGDEA | 3.87
46 | LRHSFQKEQREKTRWLNSGRGDEA | 3.83
47 | LRHSFQKFQREKTRWLNSGRGDEA | 2.73
48 | LRHSFQKGQREKTRWLNSGRGDEA | 3.52

Row | Variant | protein stability index
49 | LRHSFQKHQREKTRWLNSGRGDEA | 3.41
50 | LRHSFQKIQREKTRWLNSGRGDEA | 3.64
51 | LRHSFQKKQREKTRWLNSGRGDEA | 3.35
52 | LRHSFQKLQREKTRWLNSGRGDEA | 3.05
53 | LRHSFQKMQREKTRWLNSGRGDEA | 3.32
54 | LRHSFQKNQREKTRWLNSGRGDEA | 3.15
55 | LRHSFQKPQREKTRWLNSGRGDEA | 4.13
56 | LRHSFQKRQREKTRWLNSGRGDEA | 3.48
57 | LRHSFQKSQREKTRWLNSGRGDEA | 3.63
58 | LRHSFQKTQREKTRWLNSGRGDEA | 3.93
59 | LRHSFQKVQREKTRWLNSGRGDEA | 3.48
60 | LRHSFQKWQREKTRWLNSGRGDEA | 2.08
61 | LRHSFQKYQREKTRWLNSGRGDEA | 2.71
62 | LRHSFQKQAREKTRWLNSGRGDEA | 4.12
63 | LRHSFQKQCREKTRWLNSGRGDEA | 1.73
64 | LRHSFQKQDREKTRWLNSGRGDEA | 4.06
65 | LRHSFQKQEREKTRWLNSGRGDEA | 4.29
66 | LRHSFQKQFREKTRWLNSGRGDEA | 2.71
67 | LRHSFQKQGREKTRWLNSGRGDEA | 4.15
68 | LRHSFQKQHREKTRWLNSGRGDEA | 3.7
69 | LRHSFQKQIREKTRWLNSGRGDEA | 3.18
70 | LRHSFQKQKREKTRWLNSGRGDEA | 3.92
71 | LRHSFQKQLREKTRWLNSGRGDEA | 3.23
72 | LRHSFQKQMREKTRWLNSGRGDEA | 3.84

Row | Variant | protein stability index
73 | LRHSFQKQNREKTRWLNSGRGDEA | 3.72
74 | LRHSFQKQPREKTRWLNSGRGDEA | 3.44
75 | LRHSFQKQRREKTRWLNSGRGDEA | 3.75
76 | LRHSFQKQSREKTRWLNSGRGDEA | 3.64
77 | LRHSFQKQTREKTRWLNSGRGDEA | 3.83
78 | LRHSFQKQVREKTRWLNSGRGDEA | 3.35
79 | LRHSFQKQWREKTRWLNSGRGDEA | 2.94
80 | LRHSFQKQYREKTRWLNSGRGDEA | 3.01
81 | LRHSFQKQQAEKTRWLNSGRGDEA | 4.17
82 | LRHSFQKQQCEKTRWLNSGRGDEA | 3.58
83 | LRHSFQKQQDEKTRWLNSGRGDEA | 4.23
84 | LRHSFQKQQEEKTRWLNSGRGDEA | 4.67
85 | LRHSFQKQQFEKTRWLNSGRGDEA | 3.92
86 | LRHSFQKQQGEKTRWLNSGRGDEA | 3.72
87 | LRHSFQKQQHEKTRWLNSGRGDEA | 4.13
88 | LRHSFQKQQIEKTRWLNSGRGDEA | 3.65
89 | LRHSFQKQQKEKTRWLNSGRGDEA | 3.9
90 | LRHSFQKQQLEKTRWLNSGRGDEA | 3.82
91 | LRHSFQKQQMEKTRWLNSGRGDEA | 3.44
92 | LRHSFQKQQNEKTRWLNSGRGDEA | 3.95
93 | LRHSFQKQQPEKTRWLNSGRGDEA | 3.53
94 | LRHSFQKQQQEKTRWLNSGRGDEA | 4.44
95 | LRHSFQKQQSEKTRWLNSGRGDEA | 4.58
96 | LRHSFQKQQTEKTRWLNSGRGDEA | 3.83

Row | Variant | protein stability index
97 | LRHSFQKQQVEKTRWLNSGRGDEA | 3.48
98 | LRHSFQKQQWEKTRWLNSGRGDEA | 2.66
99 | LRHSFQKQQYEKTRWLNSGRGDEA | 3.64
100 | LRHSFQKQQRAKTRWLNSGRGDEA | 3.41
101 | LRHSFQKQQRCKTRWLNSGRGDEA | 1.93
102 | LRHSFQKQQRDKTRWLNSGRGDEA | 4.47
103 | LRHSFQKQQRFKTRWLNSGRGDEA | 2.24
104 | LRHSFQKQQRGKTRWLNSGRGDEA | 3.27
105 | LRHSFQKQQRHKTRWLNSGRGDEA | 3.27
106 | LRHSFQKQQRIKTRWLNSGRGDEA | 2.21
107 | LRHSFQKQQRKKTRWLNSGRGDEA | 3.17
108 | LRHSFQKQQRLKTRWLNSGRGDEA | 2.28
109 | LRHSFQKQQRMKTRWLNSGRGDEA | 2.26
110 | LRHSFQKQQRNKTRWLNSGRGDEA | 2.57
111 | LRHSFQKQQRPKTRWLNSGRGDEA | 3.91
112 | LRHSFQKQQRQKTRWLNSGRGDEA | 2.87
113 | LRHSFQKQQRRKTRWLNSGRGDEA | 3.65
114 | LRHSFQKQQRSKTRWLNSGRGDEA | 3.13
115 | LRHSFQKQQRTKTRWLNSGRGDEA | 3.11
116 | LRHSFQKQQRVKTRWLNSGRGDEA | 2.88
117 | LRHSFQKQQRWKTRWLNSGRGDEA | 2.56
118 | LRHSFQKQQRYKTRWLNSGRGDEA | 2.36
119 | LRHSFQKQQREATRWLNSGRGDEA | 4.1
120 | LRHSFQKQQRECTRWLNSGRGDEA | 3.79

Row | Variant | protein stability index
121 | LRHSFQKQQREDTRWLNSGRGDEA | 3.96
122 | LRHSFQKQQREETRWLNSGRGDEA | 4.24
123 | LRHSFQKQQREFTRWLNSGRGDEA | 3.05
124 | LRHSFQKQQREGTRWLNSGRGDEA | 4.09
125 | LRHSFQKQQREHTRWLNSGRGDEA | 3.58
126 | LRHSFQKQQREITRWLNSGRGDEA | 3.46
127 | LRHSFQKQQRELTRWLNSGRGDEA | 3.51
128 | LRHSFQKQQREMTRWLNSGRGDEA | 3.42
129 | LRHSFQKQQRENTRWLNSGRGDEA | 3.73
130 | LRHSFQKQQREPTRWLNSGRGDEA | 3.56
131 | LRHSFQKQQREQTRWLNSGRGDEA | 3.85
132 | LRHSFQKQQRERTRWLNSGRGDEA | 3.88
133 | LRHSFQKQQRESTRWLNSGRGDEA | 3.54
134 | LRHSFQKQQRETTRWLNSGRGDEA | 3.57
135 | LRHSFQKQQREVTRWLNSGRGDEA | 3.27
136 | LRHSFQKQQREWTRWLNSGRGDEA | 2.72
137 | LRHSFQKQQREYTRWLNSGRGDEA | 3.48
138 | LRHSFQKQQREKARWLNSGRGDEA | 3.53
139 | LRHSFQKQQREKCRWLNSGRGDEA | 3.6
140 | LRHSFQKQQREKDRWLNSGRGDEA | 4.12
141 | LRHSFQKQQREKERWLNSGRGDEA | 4.27
142 | LRHSFQKQQREKFRWLNSGRGDEA | 3.29
143 | LRHSFQKQQREKGRWLNSGRGDEA | 4.07
144 | LRHSFQKQQREKHRWLNSGRGDEA | 3.9

Row | Variant | protein stability index
145 | LRHSFQKQQREKIRWLNSGRGDEA | 4.01
146 | LRHSFQKQQREKKRWLNSGRGDEA | 3.91
147 | LRHSFQKQQREKLRWLNSGRGDEA | 3.54
148 | LRHSFQKQQREKMRWLNSGRGDEA | 3.25
149 | LRHSFQKQQREKNRWLNSGRGDEA | 4.27
150 | LRHSFQKQQREKPRWLNSGRGDEA | 3.52
151 | LRHSFQKQQREKQRWLNSGRGDEA | 3.2
152 | LRHSFQKQQREKRRWLNSGRGDEA | 3.83
153 | LRHSFQKQQREKSRWLNSGRGDEA | 3.36
154 | LRHSFQKQQREKVRWLNSGRGDEA | 3.26
155 | LRHSFQKQQREKWRWLNSGRGDEA | 2.58
156 | LRHSFQKQQREKYRWLNSGRGDEA | 2.93
157 | LRHSFQKQQREKTAWLNSGRGDEA | 3.58
158 | LRHSFQKQQREKTCWLNSGRGDEA | 2.68
159 | LRHSFQKQQREKTDWLNSGRGDEA | 3.52
160 | LRHSFQKQQREKTEWLNSGRGDEA | 4.59
161 | LRHSFQKQQREKTFWLNSGRGDEA | 3.52
162 | LRHSFQKQQREKTGWLNSGRGDEA | 4.03
163 | LRHSFQKQQREKTHWLNSGRGDEA | 3.98
164 | LRHSFQKQQREKTIWLNSGRGDEA | 3.02
165 | LRHSFQKQQREKTKWLNSGRGDEA | 3.78
166 | LRHSFQKQQREKTLWLNSGRGDEA | 3.02
167 | LRHSFQKQQREKTMWLNSGRGDEA | 3.42
168 | LRHSFQKQQREKTNWLNSGRGDEA | 3.58

Row | Variant | protein stability index
169 | LRHSFQKQQREKTPWLNSGRGDEA | 3.86
170 | LRHSFQKQQREKTQWLNSGRGDEA | 4.3
171 | LRHSFQKQQREKTSWLNSGRGDEA | 4.03
172 | LRHSFQKQQREKTTWLNSGRGDEA | 3.15
173 | LRHSFQKQQREKTVWLNSGRGDEA | 3.95
174 | LRHSFQKQQREKTWWLNSGRGDEA | 3.25
175 | LRHSFQKQQREKTYWLNSGRGDEA | 2.76
176 | LRHSFQKQQREKTRALNSGRGDEA | 4.07
177 | LRHSFQKQQREKTRCLNSGRGDEA | 3.73
178 | LRHSFQKQQREKTRDLNSGRGDEA | 4.42
179 | LRHSFQKQQREKTRELNSGRGDEA | 4.81
180 | LRHSFQKQQREKTRFLNSGRGDEA | 4.05
181 | LRHSFQKQQREKTRGLNSGRGDEA | 4.72
182 | LRHSFQKQQREKTRHLNSGRGDEA | 5.01
183 | LRHSFQKQQREKTRILNSGRGDEA | 4.27
184 | LRHSFQKQQREKTRKLNSGRGDEA | 4.08
185 | LRHSFQKQQREKTRLLNSGRGDEA | 4.38
186 | LRHSFQKQQREKTRMLNSGRGDEA | 4.25
187 | LRHSFQKQQREKTRNLNSGRGDEA | 4.54
188 | LRHSFQKQQREKTRPLNSGRGDEA | 4.66
